According to publication PMC7990337, “Architecture and mechanism of metazoan retromer:SNX3 tubular coat assembly” (Science Advances, 2021):

Target: zebrafish VPS26 (zebrafish, UniProt Q6TNP8 1-327)
Experiment: cryo-EM structure; cryo-electron tomography with subtomogram averaging of coats reconstituted on PI(3)P- and DGS-Ni-NTA-containing liposomes: 2.5 uM core trimer, 3.5x molar excess of adaptor (SNX3 or Grd19) and the corresponding His-tagged cargo peptide (Wls or Kex2), liposomes 0.16 mg/ml, 4 hours at 22°C in buffer A (20 mM Hepes-KOH pH 7.5, 200 mM NaCl, 1 mM TCEP)
Conditions: both partners purified

binding result: binds
B1: His6Wls (peptide, UniProt Q6DID7 493-541, looked up)
chain: APSHKNYGEDQSNGDLGVHSGEELQLTTTITHVDGPTEIYKLTRKEAQE
notes: Wntless (Wls), residues 493 to 541 (C-terminal domain), UniProt Q6DID7; Cloned in pRSFDuet-1; attached to the liposome membrane (liposomes contain DGS-Ni-NTA); also called Wntless cargo peptide; Wls cargo tail peptide; source: E. coli BL21(DE3), purified (Ni-NTA, Superdex Peptide 10/300)
